Measurements published in patent US20210388084A1 (JJP BIOLOGICS SP Z O O, published 2021).

T1: chimeric human/cynomolgus monkey CD89-I (human/cynomolgus monkey chimera, UniProt P24071 22-287)
T1 construct: also called ΔGln22-Lys46 human EC1-CD89; I (22-46)
T1 chain: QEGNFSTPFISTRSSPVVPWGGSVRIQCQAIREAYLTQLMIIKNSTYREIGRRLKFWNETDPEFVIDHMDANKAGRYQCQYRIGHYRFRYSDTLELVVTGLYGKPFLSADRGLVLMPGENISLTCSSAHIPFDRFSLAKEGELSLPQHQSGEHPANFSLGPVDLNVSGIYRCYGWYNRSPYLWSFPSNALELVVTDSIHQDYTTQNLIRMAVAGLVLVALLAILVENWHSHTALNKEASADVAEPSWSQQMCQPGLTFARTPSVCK

T2: chimeric human/cynomolgus monkey CD89-IV (human/cynomolgus monkey chimera, UniProt P24071 22-287)
T2 construct: also called ΔArg97-Gly121 human EC1-CD89
T2 chain: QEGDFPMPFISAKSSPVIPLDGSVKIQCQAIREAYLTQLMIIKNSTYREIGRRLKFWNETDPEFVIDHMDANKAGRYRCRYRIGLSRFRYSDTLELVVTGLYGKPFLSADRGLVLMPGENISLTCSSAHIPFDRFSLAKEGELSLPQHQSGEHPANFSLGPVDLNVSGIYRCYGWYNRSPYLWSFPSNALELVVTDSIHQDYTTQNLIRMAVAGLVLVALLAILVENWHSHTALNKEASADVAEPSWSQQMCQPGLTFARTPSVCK

T3: chimeric human/cynomolgus monkey CD89-II (human/cynomolgus monkey chimera, UniProt P24071 22-287)
T3 construct: also called ΔIle47-Ile71 human EC1-CD89; II (47-71)
T3 chain: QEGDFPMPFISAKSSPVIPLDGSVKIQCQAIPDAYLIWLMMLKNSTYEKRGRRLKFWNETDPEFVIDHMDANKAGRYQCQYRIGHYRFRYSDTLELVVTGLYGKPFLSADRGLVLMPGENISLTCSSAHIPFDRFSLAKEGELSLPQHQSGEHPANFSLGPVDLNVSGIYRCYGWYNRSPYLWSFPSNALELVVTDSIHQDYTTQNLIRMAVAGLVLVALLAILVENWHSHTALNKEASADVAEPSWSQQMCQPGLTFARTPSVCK

T4: membrane full-length cynomolgus monkey CD89 (cynomolgus monkey)
T4 construct: also called cynoCD89; cynomolgus EC1-CD89
T4 chain: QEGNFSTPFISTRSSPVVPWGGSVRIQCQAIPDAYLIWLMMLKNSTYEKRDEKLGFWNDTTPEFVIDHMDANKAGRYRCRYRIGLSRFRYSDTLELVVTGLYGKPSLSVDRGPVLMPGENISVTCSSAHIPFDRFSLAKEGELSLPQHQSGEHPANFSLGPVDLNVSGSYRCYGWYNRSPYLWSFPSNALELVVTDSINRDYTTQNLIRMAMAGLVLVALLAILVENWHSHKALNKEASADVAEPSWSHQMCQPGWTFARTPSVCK

T5: chimeric bovine EC1-Fcγ2R/human EC2-CD89 (bovine/human chimera)
T5 chain: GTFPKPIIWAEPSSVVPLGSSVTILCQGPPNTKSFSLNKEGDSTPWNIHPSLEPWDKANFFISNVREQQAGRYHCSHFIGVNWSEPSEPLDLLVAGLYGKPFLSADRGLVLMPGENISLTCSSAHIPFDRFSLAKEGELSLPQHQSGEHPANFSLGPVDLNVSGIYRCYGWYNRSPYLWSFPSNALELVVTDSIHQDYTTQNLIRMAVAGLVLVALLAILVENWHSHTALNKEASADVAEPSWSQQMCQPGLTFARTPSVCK

B1: mouse anti-human CD89-specific antibody 10E7 (antibody, mouse IgG1, V domains shown)
VH: EVQLVESGGGLVQPGGSLKLSCAASGLTFSSYGMSWVRQTPDKRLELVATINGNGDITYYPDSVKGRFTISRDNAKNTLYLQMSSLKSEDTAMYYCARDYDYDYAMDYWGQGTSVTVSS
VL: DIQMTQSTSSLSASLGDSVTISCRASQDIINYLNWYQQKPDGTVKLLIYYTSRLHSGVPSRFSGSGSGTEYSLTVSNLEKEDIATYFCQQGKTLPYTFGGGTKLEIK
B2: mouse anti-human CD89-specific antibody 20B4 (antibody, mouse IgG1, V domains shown)
VH: QVQLKESGPGLVAPSQSLSITCTVSGFSLTSYGVHWVRQPPGKGLEWLGIIWAGGSTSYNSALMSRLSISKDNSKSQVFLKMNSLQTDDTAMYYCARDHYDLFAYWGQGTLVTVSA
VL: DILMTQSPSSMSVSLGDTVSITCHASQDISRNIGWLQQKPGKSFKGLIYHGTNLEDGVPSRFSGSGSGADYSLTISSLESEDFADYYCVQYAQFPRTFGGGTKLEIK
B3: mouse anti-human CD89-specific antibody 8F3 (antibody, mouse IgG1, V domains shown)
VH: EVQLVESGGGLVKPGGSLKLSCAASGFTFSNYGMSWVRQTPDKRLEWVATMHSGGTYTYYPDNVKGRFTISRDNAKNNLYLQMSSLRSEDTAMYYCARETGLYDGLFDFWGQGTTLTVSS
VL: DVQITQSPSYLAASPGETITINCRASKTISKYLAWYQEKPGKTNMLLIYSGSTLQSGVPSRFSGSGSGTDFTLTISSLEPEDLAMYYCQQHDEYPWTFGGGTKLEIK

How the values were obtained:
[1] = molecular target: T6, membrane-bound full-length human CD89 (human, UniProt P24071 22-287); test: FACS, HEK293F-huCD89, 24 h 37C no NaN3, IgA then Ab 10 ug/mL; pre-bound non-aggr serum IgA
T6 construct: on stably or transiently transfected HEK293F cells; also called FcalphaRI; huCD89
Procedure: (§1) After extensive washing in PBS/BSA/NaN₃, 1:200 diluted PE-conjugated streptavidin (Jackson ImmunoResearch) was added, and incubated for 30 minutes at 4° C. After extensive washing in PBS/BSA/NaN₃, cells were fixed in 2% formaldehyde in PBS/BSA/NaN₃ for 30 minutes at 4° C.

[2] = molecular target: T1, chimeric human/cynomolgus monkey CD89-I; test: FACS, transiently transfected HEK293F, 10 ug/mL; ++ strong, + intermediate, -/+ weak
Procedure: (§2) After 48 hours, the binding of CD89/IgA blocking mouse anti-human CD89 antibodies to aforementioned chimeric human CD89/cynomolgus monkey CD89 constructs on transfected cells was analyzed by FACS analysis. To this end, transient transfected HEK293F cells were put at 10×10⁶ cells/mL in ice-chilled phosphate-buffered saline containing 0.1% BSA (Sigma)/0.05% NaN₃ (PBS/BSA/NaN₃) supplemented with 50 μg/mL human IgGs (blocking Fcγ receptors; Sigma) for 10 minutes at 4° C. Then, 10 μL/tube (ie, 0.1×10⁶ cells) of these cells were incubated with or without 100 μL purified mouse anti-human CD89 antibody at 10 μg/mL (in PBS/BSA/NaN₃) for 30 minutes at 4° C. […] After extensive washing in PBS/BSA/NaN₃, cells were subsequently incubated with 1:200 diluted PE-conjugated goat anti-mouse IgG Fey-specific antibodies (Jackson ImmunoResearch) for 30 minutes at 4° C. After extensive washing in PBS/BSA/NaN₃, cells were fixed in 2% formaldehyde in PBS/BSA/NaN₃ for 30 minutes at 4° C.

[3] = molecular target: T2, chimeric human/cynomolgus monkey CD89-IV; test: as above
Procedure: as §2

[4] = molecular target: T3, chimeric human/cynomolgus monkey CD89-II; test: as above
Procedure: as §2

[5] = molecular target: T6, membrane-bound full-length human CD89; test: FACS, HEK293F-huCD89, half-maximum binding
Procedure: Then, 10 μL/tube (ie, 0.1×10⁶ cells) of these cells were incubated with or without 100 μL titrated (in PBS/BSA/NaN₃) purified chimeric mouse/human anti-human CD89 antibody/tube for 30 minutes at 4° C. […] After extensive washing in PBS/BSA/NaN₃, cells were subsequently incubated with 1:200 diluted PE-conjugated goat anti-human IgG Fey-specific antibodies (Jackson ImmunoResearch) for 30 minutes at 4° C. After extensive washing in PBS/BSA/NaN₃, cells were fixed in 2% formaldehyde in PBS/BSA/NaN₃ for 30 minutes at 4° C.

[6] = molecular target: T6, membrane-bound full-length human CD89; test: FACS, HEK293F-huCD89, 4C +NaN3, Ab 10 ug/mL then IgA; competitor non-aggr serum IgA
Procedure: Then, 10 μL/tube (ie, 0.1×10⁶ cells) of these cells were incubated with or without 50 μL purified mouse anti-human CD89 antibody at 20 μg/mL (in PBS/BSA/NaN₃) for 30 minutes at 4° C. […] After extensive washing in PBS/BSA/NaN₃, 1:200 diluted PE-conjugated streptavidin (Jackson ImmunoResearch) was added, and incubated for 30 minutes at 4° C. After extensive washing in PBS/BSA/NaN₃, cells were fixed in 2% formaldehyde in PBS/BSA/NaN₃ for 30 minutes at 4° C.

[7] = molecular target: T4, membrane full-length cynomolgus monkey …; test: FACS, transiently transfected HEK293F; - = no binding
Procedure: as §2

[8] = molecular target: T5, chimeric bovine EC1-Fcγ2R/human EC2-CD89; test: FACS, transiently transfected HEK293F
Procedure: After 48 hours and/or 72 hours, the binding of CD89/IgA blocking mouse anti-human CD89 antibodies to aforementioned chimeric human/bovine receptors on transfected cells was analyzed by FACS analysis. To this end, transient transfected HEK293F cells were put at 10×10⁶ cells/mL in ice-chilled phosphate-buffered saline containing 0.1% BSA (Sigma)/0.05% NaN₃ (PBS/BSA/NaN₃) supplemented with 50 μg/mL human IgGs (blocking Fcγ receptors; Sigma) for 10 minutes at 4° C. Then, 10 μL/tube (ie, 0.1×10⁶ cells) of these cells were incubated with or without 100 μL purified mouse anti-human CD89 antibody at 10 μg/mL (in PBS/BSA/NaN₃) for 30 minutes at 4° C. […] After extensive washing in PBS/BSA/NaN₃, cells were subsequently incubated with 1:200 diluted PE-conjugated goat anti-mouse IgG Fey-specific antibodies (Jackson ImmunoResearch) for 30 minutes at 4° C. After extensive washing in PBS/BSA/NaN₃, cells were fixed in 2% formaldehyde in PBS/BSA/NaN₃ for 30 minutes at 4° C.

[9] = molecular target: T7, recombinant C-terminal polyhistidine-tagged human (extracellular) CD89 (human, UniProt P24071 22-227); test: ELISA, coated rhuCD89, half-maximum binding
T7 construct: extracellular domain; bought (Sino Biological); also called rhuCD89
Procedure: After extensive washing with PBS/0.05% Tween 20, plates were blocked with PBS/0.05% Tween 20/1% BSA (Roche) for 1 hour at RT. Subsequently, plates were incubated with 50 μL titrated (in block buffer) purified mouse anti-human CD89 antibody/well for 1 hour at RT. […] After extensive washing in PBS/0.05% Tween 20, binding of antibodies on rhuCD89 was determined with 1:5,000 diluted horseradish peroxidase (HRP)-conjugated goat anti-mouse IgG Fey-specific antibodies (Jackson ImmunoResearch) for 1 hour at RT, followed by a ready-to-use solution of TMB substrate (Invitrogen) for colorimetric detection.
After extensive washing with PBS/0.05% Tween 20, plates were blocked with PBS/0.05% Tween 20/1% BSA (Roche) for 1 hour at RT. Subsequently, plates were incubated with and without 50 μL titrated (in block buffer) purified chimeric mouse/human anti-human CD89 antibody/well for 1 hour at RT. After extensive washing in PBS/0.05% Tween 20, binding of antibodies on rhuCD89 was determined with 1:5,000 diluted horseradish peroxidase (HRP)-conjugated goat anti-human IgG Fey-specific antibodies (Jackson ImmunoResearch) for 1 hour at RT, followed by a ready-to-use solution of TMB substrate (Invitrogen) for colorimetric detection.

[10] = molecular target: T6, membrane-bound full-length human CD89; test: FACS, HEK293F-huCD89, 4C +NaN3, Ab 10 ug/mL then IgA; competitor heat-aggr serum IgA
Procedure: To mimic human IgA immune complexes, human (serum-derived) IgA (Bethyl Laboratories) was heated at 63° C. for 30 minutes, and cooled down to RT followed by centrifugation at 4° C. 12000×g for 2 minutes to remove any insoluble protein precipitation.
Then, 10 μL/tube (ie, 0.1×10⁶ cells) of these cells were incubated with or without 50 μL purified mouse anti-human CD89 antibody at 20 μg/mL (in PBS/BSA/NaN₃) for 30 minutes at 4° C.

[11] = molecular target: T6, membrane-bound full-length human CD89; test: FACS, HEK293F-huCD89, 24 h 37C no NaN3, Ab 10 ug/mL then IgA; competitor heat-aggr serum IgA
Procedure: as §1

[12] = molecular target: T6, membrane-bound full-length human CD89; test: FACS, HEK293F-huCD89, 24 h 37C no NaN3, Ab 10 ug/mL then IgA; competitor non-aggr serum IgA
Procedure: as §1

[13] = molecular target: T6, membrane-bound full-length human CD89; test: FACS, HEK293F-huCD89, unlabeled Ab 10 ug/mL first; competitor MIP8a-PE
Procedure: Then, 10 μL/tube (ie, 0.1×10⁶ cells) of these cells were incubated with or without 100 μL purified mouse anti-human CD89 antibody at 10 μg/mL (in PBS/BSA/NaN₃) for 30 minutes at 4° C. […] After extensive washing in PBS/BSA/NaN₃, cells were fixed in 2% formaldehyde in PBS/BSA/NaN₃ for 30 minutes at 4° C.

[14] = molecular target: T6, membrane-bound full-length human CD89; test: FACS, HEK293F-huCD89, 24 h 37C no NaN3, IgA then Ab 10 ug/mL; pre-bound heat-aggr serum IgA
Procedure: as §1

Row | Binder | percent IgA binding (remaining) [1] | binding result [2] | binding result [3] | binding result [4] | EC50 [5] | percent IgA binding [6] | binding result [7] | binding result [8] | EC50 [9] | percent IgA binding [10] | percent IgA binding (remaining) [11] | percent IgA binding (remaining) [12] | % blocking of MIP8a-PE binding [13] | percent IgA binding (remaining) [14]
1 | B1 | 0 to 25% | binds | binds | binds | 0.637 µg/mL | 0 to 25% | no binding (tested: 10 µg/mL) | no binding (tested: 10 µg/mL) | 0.02 µg/mL | 0 to 25% | 0 to 25% | 0 to 25% | < 25% | 0 to 25%
2 | B2 | 0 to 25% | binds | binds | – | 0.26 µg/mL | 0 to 25% | no binding (tested: 10 µg/mL) | no binding (tested: 10 µg/mL) | 0.013 µg/mL | 0 to 25% | 26 to 50% | 0 to 25% | < 25% | 26 to 50%
3 | B3 | 0 to 25% | binds | binds | binds | 0.714 µg/mL | 0 to 25% | no binding (tested: 10 µg/mL) | no binding (tested: 10 µg/mL) | 0.052 µg/mL | 0 to 25% | 0 to 25% | 0 to 25% | < 25% | 0 to 25%
